Measurements published in US20240254209A1.
Where “and” joins values, the source holds several entries; their conditions need not be identical. Equal entries are not always repeated.

T1: peanut allergen Ara h 2 (peanut (Arachis hypogaea)) (UniProt Q6PSU2)
T1 sequence (looked up): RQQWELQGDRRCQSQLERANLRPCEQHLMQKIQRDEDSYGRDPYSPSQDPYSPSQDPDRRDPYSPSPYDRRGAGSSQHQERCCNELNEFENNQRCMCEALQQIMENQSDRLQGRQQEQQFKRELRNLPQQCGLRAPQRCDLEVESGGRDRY

T2: peanut allergen Ara h 1 (peanut (Arachis hypogaea)) (UniProt P43238)
T2 sequence (looked up): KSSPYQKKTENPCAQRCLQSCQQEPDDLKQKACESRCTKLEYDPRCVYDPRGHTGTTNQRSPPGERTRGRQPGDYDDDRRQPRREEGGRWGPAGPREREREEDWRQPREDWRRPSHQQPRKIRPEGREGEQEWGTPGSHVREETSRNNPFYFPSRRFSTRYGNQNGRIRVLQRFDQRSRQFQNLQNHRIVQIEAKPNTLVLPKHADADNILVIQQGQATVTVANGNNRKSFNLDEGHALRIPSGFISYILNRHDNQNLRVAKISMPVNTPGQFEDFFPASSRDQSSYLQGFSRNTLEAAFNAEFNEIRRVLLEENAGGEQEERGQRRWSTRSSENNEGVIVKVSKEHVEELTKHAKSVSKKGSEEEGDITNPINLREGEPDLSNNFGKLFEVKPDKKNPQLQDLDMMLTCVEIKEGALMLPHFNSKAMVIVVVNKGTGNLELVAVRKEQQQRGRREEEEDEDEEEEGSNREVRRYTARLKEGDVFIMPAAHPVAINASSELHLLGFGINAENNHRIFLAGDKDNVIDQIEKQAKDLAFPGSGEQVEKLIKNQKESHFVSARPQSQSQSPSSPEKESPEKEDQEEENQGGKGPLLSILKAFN

T3: peanut allergen Ara h 6 (peanut (Arachis hypogaea)) (UniProt Q647G9)
T3 sequence (looked up): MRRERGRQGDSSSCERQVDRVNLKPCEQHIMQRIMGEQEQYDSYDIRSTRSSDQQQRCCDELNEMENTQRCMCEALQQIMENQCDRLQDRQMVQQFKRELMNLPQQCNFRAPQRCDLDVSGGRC

B1: Ara h 6-specific blocking IgG mAb 1H9 (antibody, V domains shown)
VH: QVQLVQSGSELRKPGASVKVSCKASGYTFTKYGMNWVRQAPGQGLEWMGWINTNTAKPTYAQDFTGRFVFSLDTSVNTAYLEISGLKAEDTAVYYCATDGSEGSWGQGTLVTVSS
VL: DIQMTQSPSTLSASVGDRVTITCRASQSIGTWLAWHQQKPGTAPKVLIYKASNLKSGVPSRFSGSGSGTDFTLTISSLQPDDVATYYCQQYNTYSGTFGQGTRVEIK
B2: Ara h 6-specific blocking IgG mAb 8F3 (antibody, V domains shown)
VH: QLQLQESGPGLVKPSETLSLTCTVSDASIDTPSYFWSWIRQPPGKGLEWIGSIYYTGNKYSNPSLKSRVTMSVDTPKRQFSLRLSSVTAADTAVYYCARYVDYVWLRAFDIWGQGTRVTVSS
VL: EIVLTQSPATLSLSPGERATLSCRASPSAGRFLAWYQQRPGQAPRLLIYDASKRATDTPARFSGSGSGTDFNLTIASLEPEDFAVYYCQHRSNWPLTFGGGTKVEIK
B3: human IgE mAb 3C3 (antibody, V domains shown)
VH: QLQLQESGPGLVKPSETLSLTCSISGASINSDDYYWGWIRQAPGEALEWIASIDASGTTFYNPSLRSRVTISVDTSTNQISLRLNSVTAADTAIYYCARRKTYYDFLTDYYNWYFDVWGRGTLVTVSS
VL: QSALTQPRSVSGSPGQSVTFSCTGINSDIRDYDYVSWYQQHPGEAPKLIIYDVTKRASGVPSRFSGSKSGNTASLTISGLQAEDEADYYCCSYSVTYSFEVFGTGTQVSVL
B4: human IgE mAb 21C10 (antibody, V domains shown)
VH: EVQLVESGGGLVKPGGSLRLSCAASGFILSRSSMSWVRQAPGKGLEWVSYISSTSSHIYYADSLKGRFTISRDNTENSVYLQMSSLRAEDTGVYYCARKTNGAWFLDLWGRGTLVTVSS
VL: QSVLTQPPSVSGAPGQRVTISCTGSSSNIGAGSDVHWYQQFPGSAPHVLIYGNNQRPSGVPDRFSASKSGTSASLAITGLQADDEADYYCQSYDYDLSGSWVFGGGTKLTVL
B5: human IgE mAb 3B7 (antibody, V domains shown)
VH: QVQLVQSGSELKKPGASMKVSCKASGYTFTNYAMNWVRQAPGQGLEWMGWINTNTGKPTYAQGFTGRFVFSLDTSVSMAYLQISSLEAGDTAVYFCARGESLAALGSFAYWGQGTLVTVSS
VL: DIQMTQSPSSLSASVGDRVTITCRASQSINSYLAWYQQKPGKAPNLLIYAASNLQSGVPSRFSGSGSGTDFTLTISSLQPEDFATYYCQQSSSTFWTFGQGTKVEIK
B6: human IgE mAb 7B6 (antibody, V domains shown)
VH: QVQLQQWGAGLLKPSETLSLTCAVYGGSFNGYYWSWIRQPPGKGLEWIGEIDHSGSTNYNSSLKSRVTISVDTSKNQFSLKLSSVTAADTAVYYCARRRIGSLLKYFQDWGQGTLVTVSS
VL: SYELTQPPSVSVSPGQTASITCSGDKLGDSYVCWYQLKPGQSPVLVIYQDTKRPSGIPERFSGSNSGNTATLTISETQAMDEADYYCQAWDTTTDWVFGGGTKLTVL
B7: human IgE mAb 38B7 (antibody, V domains shown)
VH: QVQLVESGGGVVQPGRSLRLSCVGSGFTFRRDAKYWVRQAPGKGLEWVAAISHDGGEEDYAESVKGRFTISRDNSRETVYLEMNSLRPEDTAVYYCATTRSGWYFDYWGQGALVTVSS
VL: EIVLTQSPATLSLSPGARATLSCRASQSVDTYLAWYQQRRGQSPRLLIYDASKRATGIPARFSGSGSGTDFTLTISSLEPEDFAVYYCQQRNNWRTWTFGQGTKVEIN
B8: human IgE mAb 26A5 (antibody, V domains shown)
VH: B1 VH
VL: B1 VL
B9: human IgE mAb 2C9 (antibody, V domains shown)
VH: QVQLVESGGGLVKPGGSLRLSCAASGFSFSDFYMSWIRQAPGKGLECISYMSSSGGNIYYADSVKGRFTISRDNAKNSLSLQMNSLRADDTALYYCARRRYGSGSSIFDYWSQGTLVTVSS
VL: SYELTQPPSVSVSPGQTASVTCSGDTLGDRYVSWYQQKAGQSPVLVIYQSGQRPSGIPERFSGSNSGNTATLSISETQALDEADYYCLTWDRGTPVFGPGTTVTVV
B10: human IgE mAb 15A7 (antibody, V domains shown)
VH: QVQLVQSGPEVRKPGASVKVSCKTSGYMFTDYEMNWVRQAPGQGLEWMGLINPHSGDTGYAQKFQGRVSMTSDTSTRTFYLELTGLTSEDTAVYYCARSQGTFEVYYFVSWGQGSLVTVSS
VL: SYVLTQPPSVSVAPGKTASITCGAKNIATKRVHWYRQKPGQAPVVVVSDEEDRSSVIPERFSGSKSGDTATLEISRVEAGDEADYYCQVWDSLADQVVFGGGTKVTVL

target: peanut extract (peanut ImmunoCAP F13); assay: peanut ImmunoCAP serum blocking; competitor: serum IgE of peanut allergic subjects

Binder | percent of total peanut binding serum IgE blocked
B1 | 20% and 25%
B2 | 20% and 25%

target: peanut extract (peanut ImmunoCAP F13); assay: ImmunoCAP, hybridoma supernatant

Binder | ImmunoCAP kUA/L [kUA/L]
B3 | 3140
B4 | 715
B5 | 1500
B6 | 420
B7 | 286
B8 | 783
B9 | 21.4
B10 | 14

target: T1, peanut allergen Ara h 2 (peanut (Arachis hypogaea)); assay: ImmunoCAP, hybridoma supernatant

Binder | ImmunoCAP kUA/L [kUA/L]
B3 | 0.85
B4 | 0.46
B5 | 0.63
B6 | 0.41
B7 | 203
B8 | 0.46
B9 | 0.13
B10 | 25.8

target: T2, peanut allergen Ara h 1 (peanut (Arachis hypogaea)); assay: ImmunoCAP, hybridoma supernatant

Binder | ImmunoCAP kUA/L [kUA/L]
B3 | 0.6
B4 | 0.36
B5 | 0.3
B6 | 0.19
B7 | 0.11
B8 | 0.15

target: T3, peanut allergen Ara h 6 (peanut (Arachis hypogaea)); assay: Ara h 6 ImmunoCAP serum blocking; competitor: serum IgE of peanut allergic subjects

Binder | percent of serum Ara h 6-specific IgE blocked [%]
B1 | 50
B2 | 50
